Measured values reported in publication PMC8379176 (Nature Communications, 2021).
Where a chain is given by its changes, count along the chain named.

B1: N3057.35A (protein)
chain: MWNATPSEEPGFNLTLADLDWDASPGNDSLGDELLQLFPAPLLAGVTATCVALFVVGIAGNLLTMLVVSRFRELRTTTNLYLSSMAFSDLLIFLCMPLDLVRLWQYRPWNFGDLLCKLFQFVSESCTYATVLTITALSVERYFAICFPLRAKVVVTKGRVKLVIFVIWAVAFCSAGPIFVLVGVEHENGTDPWDTNECRPTEFAVRSGLLTVMVWVSSIFFFLPVFCLTVLYSLIGRKLWRRRRGDAVVGASLRDQNHKQTVKMLAVVVFAFILCWLPFHVGRYLFSKSFEPGSLEIAQISQYCALVSFVLFYLSAAINPILYNIMSKKYRVAVFRLLGFEPFSQRKLSTLKDESSRAWTESSINT
modifications: left off: SNAP, N-terminal, kept
B2: F3127.42A (protein)
chain: B1 chain with A305N, F312A
modifications: SNAP tag labelled with SNAP-Lumi4-Tb; left off: SNAP, N-terminal, kept
B3: A204ECL2E (protein, UniProt Q92847 1-366, looked up, variant A204E)
Growth hormone secretagogue …: B1 chain with A204E, A305N
B4: F3097.39A (protein)
chain: B1 chain with A305N, F309A
modifications: SNAP tag labelled with SNAP-Lumi4-Tb; left off: SNAP, N-terminal, kept

Biological target: HA-tagged ghrelin receptor F286D (human) (UniProt Q92847)
Assay: not given
Conditions: not given

Row | fold decrease in calcium response of HEK293 cells, activity of ghrelin against the WT receptor [fold] | Molecule
1 | > 250 | ghrelin (octanoylated at Ser3) (peptide)

Tested on: ghrelin receptor (WT or mutants)
Assay: Cell-surface expression assay (FACS)
Format: cell-based, human
Conditions: replicate 1
Procedure: Cell-surface expression for each mutant was monitored by a fluorescence-activated cell sorting (FACS) assay. In brief, the expressed cells were incubated with mouse anti-HA-FITC antibody (Sigma) at a dilution of 1:200 for 20 min at 4 °C, and then a 9-fold excess of PBS was added to cells. […] The FACS data were analyzed by BD Accuri C6 software 1.0.264.21. The gating strategy and calculation method of expression are shown in Supplementary Fig. 11.
Supplementary Figure 11 | Gating strategy of cell surface expression assay. Circle a gate P1 in the scatter map (black circle). The cells shown in the histogram map are all the cells in the gate P1 in the scatter map. Fluorescence signal intensity (FITC) is presented by […]. With the Blank sample as the reference value of background fluorescence signal (a), the fluorescence signal histogram map is divided into two regions. The left region represents the negative cell community (FITC-), while the right region represents the positive cell community (FITC+). The expression level of cell surface wild-type (WT) ghrelin receptor (b) can be calculated as follows:
(M(FITC+)-M(FITC-))×(FITC+% Parent). M, mean fluorescence intensity. The expression level of the ghrelin receptor mutant is calculated similarly to WT receptor and then is normalized with the WT to calculate the relative expression value. […]

Row | Molecule | Cell-surface expression [%]
2 | B1 | 83.54
3 | B2 | 89.96
4 | B3 | 81.34
5 | B4 | 77.16

Same assay, conditions: replicate 2

Row | Molecule | Cell-surface expression [%]
6 | B1 | 81.81
7 | B2 | 82.57
8 | B3 | 81.24
9 | B4 | 85.09

Same assay, conditions: replicate 3

Row | Molecule | Cell-surface expression [%]
10 | B1 | 86.10
11 | B2 | 78.32
12 | B3 | 78.97
13 | B4 | 81.26

Same assay, conditions: replicate 4

Row | Molecule | Cell-surface expression [%]
14 | B1 | 86.24
15 | B2 | 82.11
16 | B3 | 76.38
17 | B4 | 79.68

Same assay, conditions: replicate 5

Row | Molecule | Cell-surface expression [%]
18 | B1 | 88.82
19 | B2 | 77.05
20 | B3 | 75.96
21 | B4 | 76.65

Tested on: not given
Assay: not given
Conditions: cited from earlier work
Description: Food intake is one of the most fundamental processes required for sustaining human life.

Row | Molecule | growth hormone-releasing activity
22 | ghrelin | potent growth hormone-releasing activity
